Publication PMC3521961, “Molecular Basis for Recognition of Dilysine Trafficking Motifs by COPI” (Developmental Cell, 2012)
No end group written: not given here.

Columns and labels:
Settings in all cases: both partners purified
[1] = molecular target: T1, yeast α-COP 1-327 (N-terminal WD-repeat domain), wild type (yeast (S. cerevisiae), UniProt P53622 1-327); test: ITC; Microcal VP-ITC, 10°C, 35 injections of 8 µL; peptide in the syringe at ten times the molar concentration of the protein in the cell; α-COP desalted into 20 mM Hepes pH 7.4, 300 mM NaCl (high salt required for stability)
T1 construct: α-COP (Ret1), yeast, residues 1-327, N-terminal WD-repeat domain; also called α1-327; Wild type A327; source: E. coli BL21(DE3)pLysS, purified (glutathione sepharose, thrombin cleavage, S200 gel filtration); not shown: GST, C-terminal, cleaved
T1 sequence (looked up): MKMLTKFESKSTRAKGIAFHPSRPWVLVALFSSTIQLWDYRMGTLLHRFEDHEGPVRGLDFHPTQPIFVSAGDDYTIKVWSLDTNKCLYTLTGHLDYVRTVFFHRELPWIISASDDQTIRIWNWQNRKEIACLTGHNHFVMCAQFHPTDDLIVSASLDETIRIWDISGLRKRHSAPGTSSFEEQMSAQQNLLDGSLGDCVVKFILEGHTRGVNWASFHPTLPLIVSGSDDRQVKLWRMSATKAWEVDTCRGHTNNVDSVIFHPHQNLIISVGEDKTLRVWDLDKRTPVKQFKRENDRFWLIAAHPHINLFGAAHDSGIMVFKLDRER

[2] = molecular target: T2, yeast β'-COP 1-304 (N-terminal WD-repeat domain), untagged (yeast (S. cerevisiae), UniProt P41811 1-304); test: ITC; Microcal VP-ITC, 10°C; peptide in the syringe, protein in the cell; 50 mM Hepes pH 7.4, 100 mM NaCl
T2 construct: source: E. coli BL21(DE3)pLysS, purified (glutathione sepharose, thrombin cleavage, S200 gel filtration); not shown: GST, C-terminal, cleaved
T2 sequence (looked up): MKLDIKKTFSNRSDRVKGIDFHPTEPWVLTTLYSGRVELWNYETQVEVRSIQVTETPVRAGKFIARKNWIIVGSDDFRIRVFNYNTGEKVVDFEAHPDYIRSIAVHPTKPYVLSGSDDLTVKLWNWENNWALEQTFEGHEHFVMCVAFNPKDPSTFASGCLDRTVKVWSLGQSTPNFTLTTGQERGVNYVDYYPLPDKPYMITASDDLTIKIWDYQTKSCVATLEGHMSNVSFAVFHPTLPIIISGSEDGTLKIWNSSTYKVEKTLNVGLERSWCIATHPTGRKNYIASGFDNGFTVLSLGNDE

[3] = molecular target: T3, yeast β'-COP 1-304 D206A E248A (yeast (S. cerevisiae), UniProt P41811 1-304, D206A | E248A); test: ITC; Microcal VP-ITC, 10°C; peptide in the syringe at ten times the molar concentration of the β'-COP construct in the cell; 50 mM HEPES (pH 7.4), 100 mM NaCl
T3 construct: constructs are in the Supplemental Experimental Procedures; also called D206A E248A mutant
T3 sequence (looked up): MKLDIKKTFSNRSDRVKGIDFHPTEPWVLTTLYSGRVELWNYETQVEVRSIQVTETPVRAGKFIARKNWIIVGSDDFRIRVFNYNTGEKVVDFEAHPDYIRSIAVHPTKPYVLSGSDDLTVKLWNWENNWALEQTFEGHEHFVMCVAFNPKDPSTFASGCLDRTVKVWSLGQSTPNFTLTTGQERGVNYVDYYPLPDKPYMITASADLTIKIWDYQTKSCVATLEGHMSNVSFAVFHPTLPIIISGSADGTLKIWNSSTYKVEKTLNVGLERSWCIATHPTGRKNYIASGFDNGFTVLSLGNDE

[4] = molecular target: T4, yeast β'-COP 1-304 D98A D117A (yeast (S. cerevisiae), UniProt P41811 1-304, D98A | D117A); test: as above
T4 construct: constructs are in the Supplemental Experimental Procedures; also called D98A D117A mutant
T4 sequence (looked up): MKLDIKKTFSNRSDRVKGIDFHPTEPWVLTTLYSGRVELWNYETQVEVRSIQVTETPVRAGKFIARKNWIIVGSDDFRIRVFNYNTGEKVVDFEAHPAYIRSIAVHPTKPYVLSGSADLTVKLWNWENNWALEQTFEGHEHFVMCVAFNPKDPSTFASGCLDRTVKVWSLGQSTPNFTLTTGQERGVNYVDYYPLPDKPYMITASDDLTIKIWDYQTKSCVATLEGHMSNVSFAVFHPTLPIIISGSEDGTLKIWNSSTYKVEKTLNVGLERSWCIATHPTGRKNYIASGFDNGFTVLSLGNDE

[5] = molecular target: T5, yeast β'-COP 1-304 (N-terminal WD-repeat domain), untagged, wild type (yeast (S. cerevisiae), UniProt P41811 1-304); test: as above
T5 construct: also called β'-COP N-terminal WD-repeat domain
T5 sequence (looked up): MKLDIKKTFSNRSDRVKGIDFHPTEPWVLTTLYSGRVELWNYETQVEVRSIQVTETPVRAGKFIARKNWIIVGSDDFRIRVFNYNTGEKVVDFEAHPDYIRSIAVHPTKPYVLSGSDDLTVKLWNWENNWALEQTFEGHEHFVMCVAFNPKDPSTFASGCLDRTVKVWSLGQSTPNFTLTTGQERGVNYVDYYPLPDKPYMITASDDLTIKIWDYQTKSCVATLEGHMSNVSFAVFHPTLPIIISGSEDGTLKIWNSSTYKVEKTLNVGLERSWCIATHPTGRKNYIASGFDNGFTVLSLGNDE

[6] = molecular target: T6, yeast β'-COP 1-304 R15A K17A R59A (yeast (S. cerevisiae), UniProt P41811 1-304, R15A | K17A | R59A); test: as above
T6 construct: constructs are in the Supplemental Experimental Procedures; also called β'-COP R15A K17A R59A mutant
T6 sequence (looked up): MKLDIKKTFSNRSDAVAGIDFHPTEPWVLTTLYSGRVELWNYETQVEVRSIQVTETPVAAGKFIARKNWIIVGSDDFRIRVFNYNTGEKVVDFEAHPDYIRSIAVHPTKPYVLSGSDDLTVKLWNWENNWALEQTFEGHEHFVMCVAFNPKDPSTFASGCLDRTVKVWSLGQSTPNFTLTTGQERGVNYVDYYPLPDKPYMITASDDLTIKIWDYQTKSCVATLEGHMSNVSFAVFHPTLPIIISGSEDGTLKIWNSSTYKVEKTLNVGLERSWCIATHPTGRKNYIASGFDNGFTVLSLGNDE

[7] = molecular target: T7, yeast β'-COP 1-604 (both WD-repeat domains) (yeast (S. cerevisiae), UniProt P41811 1-604); test: crystal structure; β'1-604 (10 mg/ml) with CTFKTKTN (30 mg/ml, mixed 1:10); 0.1 M bicine (pH 9.0), 10% MPD; space group P3(1), twinned
T7 construct: constructs are in the Supplemental Experimental Procedures
T7 sequence (looked up): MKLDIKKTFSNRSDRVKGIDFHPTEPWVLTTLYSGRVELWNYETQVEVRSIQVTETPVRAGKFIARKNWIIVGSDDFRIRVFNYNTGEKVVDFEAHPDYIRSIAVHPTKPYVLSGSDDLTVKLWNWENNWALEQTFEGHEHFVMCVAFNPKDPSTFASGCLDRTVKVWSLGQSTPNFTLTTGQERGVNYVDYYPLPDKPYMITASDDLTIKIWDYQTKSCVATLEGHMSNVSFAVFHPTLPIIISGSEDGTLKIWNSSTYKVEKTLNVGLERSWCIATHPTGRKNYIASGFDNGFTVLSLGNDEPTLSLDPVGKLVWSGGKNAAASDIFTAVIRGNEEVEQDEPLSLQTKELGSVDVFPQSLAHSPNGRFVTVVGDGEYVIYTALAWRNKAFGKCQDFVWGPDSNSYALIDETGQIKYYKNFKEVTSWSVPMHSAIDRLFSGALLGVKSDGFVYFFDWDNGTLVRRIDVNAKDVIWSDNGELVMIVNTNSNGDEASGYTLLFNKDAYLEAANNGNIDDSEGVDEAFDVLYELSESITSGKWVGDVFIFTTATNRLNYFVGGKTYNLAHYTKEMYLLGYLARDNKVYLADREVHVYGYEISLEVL

[8] = molecular target: T5, yeast β'-COP 1-304 (N-terminal …); test: crystal structure; β'1-304 (10 mg/ml) with CTFKTKTN (30 mg/ml, mixed 1:10); 0.1 M HEPES (pH 7.5), 0.5 M ammonium sulfate, 30% v/v MPD; space group P6(1)
[9] = molecular target: T5, yeast β'-COP 1-304 (N-terminal …); test: crystal structure; β'1-304 (untagged) with CTFKKTN; details in the Supplemental Experimental Procedures

## CTFKKTN-OH [KKTN motif peptide from yeast Wbp1 (as used in ITC)]
[1]
  Kd: 81 µM

## RQEIIKTKLL (also called KTKLL motif) [yeast Emp47 C-terminal KxKxx peptide RQEIIKTKLL]
[2]
  Kd: 10 to 20 µM

B1: KxKxx motif peptide from wild-type yeast Emp47 (RQEIIKTKLL) (peptide)
peptide: RQEIIKTKLL
notes: also called KTKLL motif; source: peptide
[3]
  Kd: < 300 µM
[4]
  Kd: < 300 µM
[5]
  Kd: 6.8 µM
[6]
  Kd: < 300 µM

## CTFKKTN-OH [Wbp1 KKTN motif peptide used for ITC]
[5]
  Kd: ~85 µM

## RQEIISTKLL-OH [Emp47 KxKxx peptide without the -5 lysine (STKLL)]
[5]
  Kd: ~160 µM

B2: CTFKTKTN peptide (KxKxx motif, synthetic peptide used in crystallization) (peptide)
peptide: CTFKTKTN
notes: synthetic KxKxx peptide used in crystallization; Looks like the Wbp1-derived CTFKKTN with a threonine between the two lysines; source: synthetic peptide
[7]
  binding result: binds
[8]
  binding result: binds

B3: CTFKKTN peptide (KKxx motif derived from yeast Wbp1), used in crystallization (peptide)
peptide: CTFKKTN
notes: KKxx motif derived from the C terminus of yeast Wbp1; The N-terminal cysteine may not be a residue of Wbp1 (surmise); also called CTFKKTN motif; source: peptide
[9]
  binding result: binds
